Results on two molecules are retold here after article PMC8535069.

For experiment [1], the target named is Gαo with the Gln52 mutation. Description: co-IP; N2a cells co-transfected 24 h with Gαo-GFP constructs and His6-RGS19 (1:1) or mRFP-Gβ1/mRFP-Gγ3 (1:1:1); lysate in GST-lysis buffer (20 mM Tris-HCl pH 8.0, 1% Triton X-100, 10% glycerol in PBS); Gαo-GFP precipitated with GST-tagged GFP nanobody and glutathione Sepharose 4B overnight at 4 °C; Western blot against GFP, mRFP, His6; blots quantified, normalised to the precipitated Gαo, 5 experiments. In general terms: Immunoblotting shows a protein as a band on a membrane.

For experiment [2], the target named is Gαo[Gln52Pro] and Gαo[Gln52Arg]. The experiment is described as above.

Consider “Gβ1γ3 heterodimer (mRFP-Gβ1 and mRFP-Gγ3) (from UniProt P62873 1-340; P63215 1-75) (complex)”, for which the fold reduction of co-precipitation against wild-type Gαo in experiment [1] was in the range of 2 to 4 fold.

B1: His6-RGS19 (natural protein)
chain: MPTPHEAEKQITGPEEADRPPSMSSHDTASPAAPSRNPCCLCWCCCCSCSWNQERRRAWQASRESKLQPLPSCEVCATPSPEEVQSWAQSFDKLMHSPAGRSVFRAFLRTEYSEENMLFWLACEELKAEANQHVVDEKARLIYEDYVSILSPKEVSLDSRVREGINKKMQEPSAHTFDDAQLQIYTLMHRDSYPRFLSSPTYRALLLQGPSQSSSEA
Take B1: in experiment [2], the fold reduction of co-precipitation against wild-type Gαo lay in the range of 2 to 3 fold.
